Legend:
[1] = One-step conversion of CPC into 7-ACA (HPLC); type: biochemical; details: 50 mM CPC, pH 8.5, 25° C., 1 hr, purified enzyme
Experimental: E. coli BL21(DE3) transformant containing each one of pET29-TnS5αβ and pET29-S12 plasmids of Example <3-2> was cultivated in 5 l of a LB broth containing 20 μg/ml of kanamycin and 2% lactose at 25° C., 200 rpm for 72 hr with vigorous shaking. Further, E. coli MC1061(pBCPC) containing the wild-type CPC acylase gene was also cultivated in 10 l of a LB broth containing 25 μg/ml of chloramphenicol at 25° C., 200 rpm for 48 hr with vigorous shaking. After then, the wild-type CPC acylase, TnS5αβ and S12 CPC acylase mutants were purified from each culture broth according to the same method as described in Example <2-1>, respectively. The purified protein obtained above was subjected to dialysis with 50 mM phosphate buffer solution (pH 8.5), and the diffusate obtained by dialysis was used for a CPC conversion reaction.
After CPC was dissolved in 50 mM phosphate buffer solution (pH 8.5) at a final concentration of 50 mM, the purified enzyme solution dissolved in the same buffer solution was added to the CPC solution obtained above at a final concentration of 5 unit/mg to prepare […] of the reaction mixture. The reaction mixture was stirred at 25° C. for 1 hr to induce a CPC conversion reaction. At this time, in order to prevent pH of the reaction mixture from decreasing during the conversion reaction, when pH of the reaction mixture was reached to 8.4, 0.2 N NaOH solution was automatically injected to the reaction mixture by a pH regulator to constantly maintain pH of the reaction mixture at 8.5. 100 μl of the reaction mixture was taken from at a fixed time during the conversion reaction and immediately subjected to a HPLC analysis to quantify the amount of CPC and 7-ACA in the reaction mixture. […] In addition, the flow rate of mobile phase was 0.6 ml/min, the sample (20 μl) to be injected was prepared by appropriately diluting the reaction mixture with 50 mM phosphate buffer solution (pH 8.5), and its absorbance was detected at UV 250 nm.

[2] = Specific activity of CPC acylase to CPC (PDAB colorimetric assay); type: biochemical; details: purified enzyme
Experimental: Each E. coli transformant was inoculated into 3 ml of a LB medium (1% Bacto-Tryptone, 0.5% Yeast Extract, 0.5% NaCl) containing 25 μg/ml of chloramphenicol and cultured at 30° C., 200 rpm for 16 hr with vigorous shaking. 50 μl of the culture solution was transformed to 50 ml of a new LB medium containing […] of chloramphenicol and further cultured at 25° C., 200 rpm for 48 hr with vigorous shaking. The culture solution was subjected to centrifugation at 4° C., 8,000 rpm for 10 min to separate a precipitate and the precipitate washed twice with 0.1 M Tris-HCl buffer solution (pH 8.0). This precipitate was suspended in 5 ml of the same buffer solution and subjected to ultra-sonication at 4° C. for 10 min. […]
The enzyme activity of CPC acylase mutant to CPC was measured according to the method described by Park et al. with minor modifications as follows (Park, et al., Kor. J. Appl. Microbiol. Biotechnol. 23: 559-564, 1995). A substrate solution was prepared by dissolving CPC (purity 74.2%; CJ Corp., Korea) in 0.1 M Tris-HCl buffer solution (pH 8.0) at a concentration of 20 mg/ml and adjusting pH to 8 with 1 N NaOH. […] After the reaction, the mixture (200 μl) of 50 mM NaOH and 20% glacial acetic acid (1:2) was added thereto to stop the reaction. 200 μl of the supernatant recovered from the reaction mixture by centrifugation was mixed with 40 μl of 0.5% (w/v) PDAB (p-dimethylaminobenzaldehyde; Sigma, USA) dissolved in a methanol and the reaction mixture was incubated at 37° C. for 10 min. After the reaction, the absorbance of reaction mixture was measured at 415 nm and quantified by comparing with a calibration curve of standard material. At this time, 1 unit has been defined as the amount of enzyme capable to produce 1 μmole of 7-ACA from CPC per minute. Meanwhile, the specific activity of CPC acylase mutant for CPC was determined by measuring the amount of protein remaining in the enzyme solution according to the method described by Bradford (Bradford, M., Anal. Biochem. 72: 248-254, 1976) and representing it as an active unit corresponding to 1 mg of protein. The reactivity of CPC acylase mutant to CPC was determined by the following steps of adding the same amount of protein to a reaction mixture, performing an enzyme reaction for a fixed time, measuring the amount of 7-ACA produced in the reaction mixture, and representing it as a relative value. The end-product inhibition by 7-ACA was determined by adding a protein corresponding to the same active unit to a reaction mixture, performing an enzyme reaction for a fixed time; measuring the amount of 7-ACA produced in the reaction mixture, and representing it as a relative value.

| Molecule | CPC conversion rate [1] | specific activity to CPC as % of that to GL-7-ACA [2] | specific activity to CPC ([2]; pH 8.0) | Relative activity to CPC (fold) ([2]; relative to wild-type) | 7-ACA yield [1] | specific activity to CPC, fold higher than that of the wild-type CPC acylase ([2]; pH 8.5) | specific activity to CPC ([2]; pH of the reaction mixture 8.5) |
| --- | --- | --- | --- | --- | --- | --- | --- |
| Wild-type: Pseudomonas sp. SE83 derived wild-type CPC acylase (AcyII), α-subunit SEQ ID NO: 4 and β-subunit SEQ ID NO: 5, from pBCPC (protein, Pseudomonas sp. SE83) alpha: TMAAKTDREALQAALPPLSGSLSIPGLSAPVRVQRDGWGIPHIKASGEADAYRALGFVHAQDRLFQMELTRRKALGRAAEWLGAEAAEADILVRRLGMEKVCRRDFEALGAEAKDMLRAYVAGVNAFLASGAPLPIEYGLLGAEPEPWEPWHSIAVMRRLGLLMGSVWFKLWRMLALPVVGAANALKLRYDDGGQDLLCIPPGVEAERLEADLAALRPAVDALLKAMGG beta: SNNWAVAPGRTATGRPILAGDPHRVFEIPGMYAQHHLACDRFDMIGLTVPGVPGFPHFAHNGKVAYCVTHAFMDIHDLYLEQFAEDGRTARFGNEFEPVAWRRDRIAVRGGADREFDIVETRHGPVIAGDPLEGAALTLRSVQFAETDLSFDCLTRMPGASTVAQLYDATRGWGLIDHNLVAGDVAGSIGHLVRARVPSRPRENGWLPVPGWSGEHEWRGWIPHEAMPRVIDPPGGLIVTANNRVVADDHPDYLCTDCHPPYRAERIMERLVASPAFAVDDAAAIHADTLSPHVGLLRARLEALGIQGSLPAEELRQTLIAWDGRMDAGSQAASAYNAFRRALTRLVTARSGLEQAIAHPFAAVPPGVSPQGQVWWAVPTLLRNDDAGMLKGWSWDEALSEALSVATQNLTGRGWGEEHRPRFTHPLSAQFPAWAALLNPVSRPIGGDGDTVLANGLVPSAGPEATYGALSRYVFDVGNWDNSRWVVFHGASGHPASPHYADQNAPWSDCAMVPMLYSWDRIAAEAVTSQELVPA | 60% | about 1.4% | about 0.33 unit/mg protein | 1.0 fold |  |  |  |
| S12: sixfold CPC acylase mutant, α-subunit SEQ ID NO: 7 and β-subunit SEQ ID NO: 8 (protein, alpha-subunit of mutatnt CPC acylase S12 protein; beta-subunit of mutatnt CPC acylase S12 protein) alpha: TMAAKTDREALQAALPPLSGSLSIPGLSAPVRVQRDGWGIPHIKASGEADAYRALGFVHAQDRLFQMELTRRKALGRAAEWLGAEAAEADILVRRLGMEKVCRRDFEALGAEAKDMLRAYAAGVNAFLASGAPLPIEYSLLGAEPEPWEPWHSIAVMRRLGLLMGSVWFKLWRMLALPVVGAANALKLRYDDGGQDLLCIPPGVEAERLEADLAALRPAVDALLKAMGG beta: SNNWAVAPGRTATGRPILAGDPHRVFEIPGMYAQHHLACDRFDMIGLTVPGVPGFPHNAHNGKVAYCVTHAFMDTHDLYLEQFAEDGRTARFGNEFEPVAWRRDRIAVRGGADREFDIVETRHGPVIAGDPLEGAALTLRSVQFAETDLSFDCLTRMPGASTVAQLYDATRGWGLVDHNLVAGDVAGSIGHLVRARVPSRPRENGWLPVPGWSGEHEWRGWIPHEAMPRVIDPPGGLIVTANNRVVADDHPDYLCTDCHPPYRAERIMERLVASPAFAVDDAAAIHADTLSPHVGLLRARLEALGIQGSLPAEELRQTLIAWDGRMDAGSQAASAYNAFRRALTRLVTARSGLEQAIAHPFAAVPPGVSPQGQVWWAVPTLLRNDDAGMLKGWSWDEALSEALSVATQNLTGRGWGEEHRPRFTHPLSAQFPAWAALLNPVSRPIGGDGDTVLANGLVPSAGPEATYGALCRYVFDVGNWDNSRWVVFHGASGHPASPHYADQNAPWSDCAMVPMLYSWDRIAAEAVTSQELVPA | 98% |  |  |  | ≥ 90% | 8.5 fold | 5.8 unit/mg protein |
